Measurements: publication PMC12613123, “Fabrication of Disposable Thin-Film Electrodes via Shadow Mask Technique for Sensitive Point-of-Care Detection of C‑Reactive Protein, a Sepsis Biomarker”

Target: T1, C-reactive protein (CRP) (UniProt P02741 19-224)
T1 sequence: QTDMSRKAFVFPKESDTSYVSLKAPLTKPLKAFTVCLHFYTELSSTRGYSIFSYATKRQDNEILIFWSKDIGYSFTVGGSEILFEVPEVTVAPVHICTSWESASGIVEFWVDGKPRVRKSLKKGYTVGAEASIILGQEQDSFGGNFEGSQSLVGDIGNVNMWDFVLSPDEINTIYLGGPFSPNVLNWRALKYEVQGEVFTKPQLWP
Test: electrochemical aptasensor (CV, EIS); aptamer/MCH on gold thin-film electrode; ferro-/ferricyanide; CRP 0.02-0.9 ng/mL; Rct 1.78 to 2.8 kOhm; LOD 6.5 pg/mL (not a Kd); ferro-/ferricyanide redox couple; buffer, salt, pH and temperature not given in the held text (aptamer immobilization at 2-4 C)
Details: chain copies: 5

B1: CRP aptamer (44 nt) (ssDNA)
DNA: GCCTGTAAGGTGGTCGGTGTGGCGAGTGTGTTAGGAGAGATTGC
modifications: 5' HO-(CH2)6-S-S-(CH2)6 thiol linker (TCEP reduced), immobilized on gold with MCH backfill
binding result: binds
